Reference: patent publication US20250188176A1

Molecular target: canine IL-4RA (construct not given) (canine)
Test: SPR, IL-4RA immobilised, periplasmic Fab

Binder	Improvement over parental	RU max	koff
FJ2246MP06D12 (Fab, V domains shown) VH: EVQLVESGGDLVKPGGSLRLSCVASGFTFRDYAMTWVRQAPGKGLQWVSLINGNSGKTYYADAVKGRFTISRDNAKNTLYLQMNSLRAEDTAVYYCAVDRLTKTIRPQYYGLWVWGQGTLVTVSS VL: DIVMTQTPLSLSVSPGETASISCRSSQSLLYSIGYNYLDWYLQKPGQSPQGLIYLGSKRASGVPDRFSGSGSGTDFTLRISRVEANDTGVYYCMQGLQSPLTFGQGTKLEIKR	2.7 fold	154 RU	0.000102 s⁻¹
FJ2246MP06A09 (Fab, V domains shown) VH: EVQLVESGGDLVKPGGSLRLSCVASGFTFRDYAMTWVRQAPGKGLQWVSLINGNGSKTYYADAVKGRFTISRDNAKNTLYLQMNSLRAEDTAVYYCAVDRLTKTIRPQYYGLWVWGQGTLVTVSS VL: DIVMTQTPLSLSVSPGETASISCRSSQSLLYSIGYNYLDWYLQKPGQSPQGLIYLGSKRASGVPDRFSGSGSGTDFTLRISRVEANDTGVYYCMQGLQSPLTFGQGTKLEIKR	2.6 fold	152 RU	0.000106 s⁻¹
FJ2246MP06H01 (Fab, V domains shown) VH: EVQLVESGGDLVKPGGSLRLSCVASGFTFRDYAMTWVRQAPGKGLQWVSLINGDASKTYYADAVKGRFTISRDNAKNTLYLQMNSLRAEDTAVYYCAVDRLTKTIRPQYYGLWVWGQGTLVTVSS VL: DIVMTQTPLSLSVSPGETASISCRSSQSLLYSIGYNYLDWYLQKPGQSPQGLIYLGSKRASGVPDRFSGSGSGTDFTLRISRVEANDTGVYYCMQGLQSPLTFGQGTKLEIKR	2.6 fold	225 RU	0.000106 s⁻¹
FJ2246MP10G07 (Fab, V domains shown) VH: EVQLVESGGDLVKPGGSLRLSCVASGFTFRDYAMTWVRQAPGKGLQWVSLISGSGGKTYYADAVKGRFTISRDNAKNTLYLQMNSLRAEDTAVYYCAVDRLTKTIRPQYYGLWVWGQGTLVTVSS VL: DIVMTQTPLSLSVSPGETASISCRSSQSLLYSIGYNYLDWYLQKPGQSPQGLIYLGSKRASGVPDRFSGSGSGTDFTLRISRVEADDTGVYYCMQGLHSPLTFGQGTKLEIK	2.5 fold	372 RU	0.000111 s⁻¹
FJ2246MP06F01 (Fab, V domains shown) VH: EVQLVESGGDLVKPGGSLRLSCVASGFTFRDYAMTWVRQAPGKGLQWVSLINGSGTKTYYADAVKGRFTISRDNAKNTLYLQMNSLRAEDTAVYYCAVDRLTKTIRPQYYGLWVWGQGTLVTVSS VL: DIVMTQTPLSLSVSPGETASISCRSSQSLLYSIGYNYLDWYLQKPGQSPQGLIYLGSKRASGVPDRFSGSGSGTDFTLRISRVEANDTGVYYCMQGLQSPLTFGQGTKLEIKR	2.5 fold	199 RU	0.000112 s⁻¹
FJ2246MP06E01 (Fab, V domains shown) VH: EVQLVESGGDLVKPGGSLRLSCVASGFTFRDYAMTWVRQAPGKGLQWVSLINGSGGKTYYADAVKGRFTISRDNAKNTLYLQMNSLRAEDTAVYYCAVDRLTKTIRPQYYGLWVWGQGTLVTVSS VL: DIVMTQTPLSLSVSPGETASISCRSSQSLLYSIGYNYLDWYLQKPGQSPQGLIYLGSKRASGVPDRFSGSGSGTDFTLRISRVEANDTGVYYCMQGLQSPLTFGQGTKLEIKR	2.4 fold	152 RU	0.000119 s⁻¹
FJ2246MP06C01 (Fab, V domains shown) VH: EVQLVESGGDLVKPGGSLRLSCVASGFTFRDYAMTWVRQAPGKGLQWVSLINGNGGKTYYADAVKGRFTISRDNAKNTLYLQMNSLRAEDTAVYYCAVDRLTKTIRPQYYGLWVWGQGTLVTVSS VL: DIVMTQTPLSLSVSPGETASISCRSSQSLLYSIGYNYLDWYLQKPGQSPQGLIYLGSKRASGVPDRFSGSGSGTDFTLRISRVEANDTGVYYCMQGLQSPLTFGQGTKLEIKR	2.3 fold	160 RU	0.000122 s⁻¹
FJ2246MP05A03 (Fab, V domains shown) VH: EVQLVESGGDLVKPGGSLRLSCVASGLPFRDYAMAWVRQAPGKGLQWVSLISGSGGKTYYADAVKGRFTISRDNAKNTLYLQMNSLRAEDTAVYYCAVDRLTKTIRPQYYGLWVWGQGTLVTVSS VL: DIVMTQTPLSLSVSPGETASISCRSSQSLLYSIGYNYLDWYLQKPGQSPQGLIYLGSKRASGVPDRFSGSGSGTDFTLRISRVEANDTGVYYCMQGLQSPLTFGQGTKLEIKR	2.3 fold	400 RU	0.000124 s⁻¹
FJ2246MP10B07 (Fab, V domains shown) VH: EVQLVESGGDLVKPGGSLRLSCVASGFTFRDYAMTWVRQAPGKGLQWVSLISGSGGKTYYADAVKGRFTISRDNAKNTLYLQMNSLRAEDTAVYYCAVDRLTKTIRPQYYGLWVWGQGTLVTVSS VL: DIVMTQTPLSLSVSPGETASISCRSSQSLLYSIGYNYLDWYLQKPGQSPQGLIYLGSKRASGVPDRFSGSGSGTDFTLRISRVEAEDTGVYYCMQGLHSPLTFGQGTKLEIK	2.2 fold	252 RU	0.000125 s⁻¹
FJ2246MP06C02 (Fab, V domains shown) VH: EVQLVESGGDLVKPGGSLRLSCVASGFTFRDYAMTWVRQAPGKGLQWVSLINGDGSKVYYADAVKGRFTISRDNAKNTLYLQMNSLRAEDTAVYYCAVDRLTKTIRPQYYGLWVWGQGTLVTVSS VL: DIVMTQTPLSLSVSPGETASISCRSSQSLLYSIGYNYLDWYLQKPGQSPQGLIYLGSKRASGVPDRFSGSGSGTDFTLRISRVEANDTGVYYCMQGLQSPLTFGQGTKLEIKR	2.2 fold	272 RU	0.000126 s⁻¹
FJ2246MP10H03 (Fab, V domains shown) VH: EVQLVESGGDLVKPGGSLRLSCVASGFTFRDYAMTWVRQAPGKGLQWVSLISGSGGKTYYADAVKGRFTISRDNAKNTLYLQMNSLRAEDTAVYYCAVDRLTKTIRPQYYGLWVWGQGTLVTVSS VL: DIVMTQTPLSLSVSPGETASISCRSSQSLLYSIGYNYLDWYLQKPGQSPQGLIYLGSKRASGVPDRFSGSGSGTDFTLRISRVEAEDTGVYYCMQGLRSPLSFGQGTKLEIK	2.2 fold	243 RU	0.000126 s⁻¹
FJ2246MP10A10 (Fab, V domains shown) VH: EVQLVESGGDLVKPGGSLRLSCVASGFTFRDYAMTWVRQAPGKGLQWVSLISGSGGKTYYADAVKGRFTISRDNAKNTLYLQMNSLRAEDTAVYYCAVDRLTKTIRPQYYGLWVWGQGTLVTVSS VL: DIVMTQTPLSLSVSPGETASISCRSSQSLLYSIGYNYLDWYLQKPGQSPQGLIYLGSKRASGVPDRFSGSGSGTDFTLRISRVEAEDTGVYYCMQGLHSPLTFGQGTKLEIK	2.2 fold	369 RU	0.000126 s⁻¹
FJ2246MP10B02 (Fab, V domains shown) VH: EVQLVESGGDLVKPGGSLRLSCVASGFTFRDYAMTWVRQAPGKGLQWVSLISGSGGKTYYADAVKGRFTISRDNAKNTLYLQMNSLRAEDTAVYYCAVDRLTKTIRPQYYGLWVWGQGTLVTVSS VL: DIVMTQTPLSLSVSPGETASISCRSSQSLLYSIGYNYLDWYLQKPGQSPQGLIYLGSKRASGVPDRFSGSGSGTDFTLRISRVEANDTGVYYCMQGLHSPLTFGQGTKLEIK	2.2 fold	202 RU	0.000127 s⁻¹
FJ2246MP06D11 (Fab, V domains shown) VH: EVQLVESGGDLVKPGGSLRLSCVASGFTFRDYAMTWVRQAPGKGLQWVSLINGSGGKTYYADAVKGRFTISRDNAKNTLYLQMNSLRAEDTAVYYCAVDRLTKTIRPQYYGLWVWGQGTLVTVSS VL: DIVMTQTPLSLSVSPGETASISCRSSQSLLYSIGYNYLDWYLQKPGQSPQGLIYLGSKRASGVPDRFSGSGSGTDFTLRISRVEANDTGVYYCMQGLQSPLTFGQGTKLEIKR	2.1 fold	146 RU	0.000132 s⁻¹
FJ2246MP06C10 (Fab, V domains shown) VH: EVQLVESGGDLVKPGGSLRLSCVASGFTFRDYAMTWVRQAPGKGLQWVSLINGSGGKTYYADAVKGRFTISRDNAKNTLYLQMNSLRAEDTAVYYCAVDRLTKTIRPQYYGLWVWGQGTLVTVSS VL: DIVMTQTPLSLSVSPGETASISCRSSQSLLYSIGYNYLDWYLQKPGQSPQGLIYLGSKRASGVPDRFSGSGSGTDFTLRISRVEANDTGVYYCMQGLQSPLTFGQGTKLEIKR	2.1 fold	135 RU	0.000133 s⁻¹
FJ2246MP10G04 (Fab, V domains shown) VH: EVQLVESGGDLVKPGGSLRLSCVASGFTFRDYAMTWVRQAPGKGLQWVSLISGSGGKTYYADAVKGRFTISRDNAKNTLYLQMNSLRAEDTAVYYCAVDRLTKTIRPQYYGLWVWGQGTLVTVSS VL: DIVMTQTPLSLSVSPGETASISCRSSQSLLYSIGYNYLDWYLQKPGQSPQGLIYLGSKRASGVPDRFSGSGSGTDFTLRISRVEAEDTGVYYCMQGLQSPLSFGQGTKLEIK	2.1 fold	251 RU	0.000134 s⁻¹
FJ2246MP07E01 (Fab, V domains shown) VH: EVQLVESGGDLVKPGGSLRLSCVASGFTFRDYAMTWVRQAPGKGLQWVSLISGSGGKTYYADAVKGRFTISRDNAKNTLYLQMNSLRAEDTAVYYCAVDRLTKTIRPQYYGLWSWGQGTLVTVSS VL: DIVMTQTPLSLSVSPGETASISCRSSQSLLYSIGYNYLDWYLQKPGQSPQGLIYLGSKRASGVPDRFSGSGSGTDFTLRISRVEANDTGVYYCMQGLQSPLTFGQGTKLEIKR	2.1 fold	423 RU	0.000135 s⁻¹
FJ2246MP10D01 (Fab, V domains shown) VH: EVQLVESGGDLVKPGGSLRLSCVASGFTFRDYAMTWVRQAPGKGLQWVSLISGSGGKTYYADAVKGRFTISRDNAKNTLYLQMNSLRAEDTAVYYCAVDRLTKTIRPQYYGLWVWGQGTLVTVSS VL: DIVMTQTPLSLSVSPGETASISCRSSQSLLYSIGYNYLDWYLQKPGQSPQGLIYLGSKRASGVPDRFSGSGSGTDFTLRISRVEADDTGVYYCMQGLQSPLSFGQGTKLEIK	2 fold	283 RU	0.000137 s⁻¹
FJ2246MP10E12 (Fab, V domains shown) VH: EVQLVESGGDLVKPGGSLRLSCVASGFTFRDYAMTWVRQAPGKGLQWVSLISGSGGKTYYADAVKGRFTISRDNAKNTLYLQMNSLRAEDTAVYYCAVDRLTKTIRPQYYGLWVWGQGTLVTVSS VL: DIVMTQTPLSLSVSPGETASISCRSSQSLLYSIGYNYLDWYLQKPGQSPQGLIYLGSKRASGVPDRFSGSGSGTDFTLRISRVEAEDTGVYYCMQGLQSPLSFGQGTKLEIK	2 fold	251 RU	0.000139 s⁻¹
